Source: patent publication US20150158934A1

B1: L8Cj3 Mutant 2 (VHH)
VHH: EVQLVESGGGLVQAGGFLRLSCELRGSIFSQYAMAWFRQAPGKEREFVAGMGAVPHYGEFVKGRFTISRDNAKSTVYLQMSSLKPEDTAIYFCARSKSTYISYNSNGYDYWGRGTQVTVSS
B2: L8Cj3 Mutant 4 (VHH)
VHH: EVQLVESGGGLVQAGGFLRLSCELRGSIFNQYAMAWFRQAPGKEREFVAGMGAVPHYADSVKGRFTISRDNAKSTVYLQMSSLKPEDTAIYFCARSKSTYISYNSNGYDYWGRGTQVTVSS
B3: L8Cj3 Mutant 5 (VHH)
VHH: EVQLVESGGGLVQAGGFLRLSCELRGSIFNQYAMAWFRQAPGKEREFVAGMGAVPHYGEFVKGRFTISRDNAKSTVYLQMSSLKPEDTAVYFCARSKSTYISYNSNGYDYWGRGTQVTVSS
B4: L8Cj3 Mutant 6 (VHH)
VHH: EVQLVESGGGLVQAGGFLRLSCELRGSIFNQYAMAWFRQAPGKEREFVAGMGAVPHYGEFVKGRFTISRDNAKSTVYLQMSSLKPEDTAIYYCARSKSTYISYNSNGYDYWGRGTQVTVSS
B5: L8Cj3 Mutant 7 (VHH)
VHH: EVQLVESGGGLVQAGGFLRLSCELRGSIFNQYAMAWFRQAPGKEREFVAGMGAVPHYGEFVKGRFTISRDNAKSTVYLQMSSLKPEDTAIYFCAASKSTYISYNSNGYDYWGRGTQVTVSS
B6: L8Cj3 Mutant 8 (VHH)
VHH: EVQLVESGGGLVQAGGFLRLSCELRGSIFNQYAMAWFRQAPGKEREFVAGMGAVPHYGEFVKGRFTISRDNAKSTVYLQMSSLKPEDTAIYFCARSKNTYISYNSNGYDYWGRGTQVTVSS
B7: L8Cj3 Mutant 9 (VHH)
VHH: EVQLVESGGGLVQAGGFLRLSCELRGSIFNQYAMAWFRQAPGKEREFVAGMGAVPHYGEFVKGRFTISRDNAKSTVYLQMSSLKPEDTAIYFCARSKSTYISYASNGYDYWGRGTQVTVSS
B8: L8Cj3 Mutant 10 (VHH)
VHH: EVQLVESGGGLVQAGGFLRLSCELRGSIFNQYAMAWFRQAPGKEREFVAGMGAVPHYGEFVKGRFTISRDNAKSTVYLQMSSLKPEDTAIYFCARSKSTYISYNSNEYDYWGRGTQVTVSS
B9: L8Cj3 Mutant 11 (VHH)
VHH: EVQLVESGGGLVQAGGFLRLSCELRGSIFNQYAMAWFRQAPGKEREFVAGMGAVPHYGEFVKGRFTISRDNAKSTVYLQMSSLKPEDTAIYFCARSKSTYISYNSNGYDYWGQGTQVTVSS
B10: L8Cj3 Mutant 12 (VHH)
VHH: EVQLVESGGGLVQAGGFLRLSCIYRGSIFNQYAMAWFRQAPGKEREFVAGMGAVPHYGEFVKGRFTISRDNAKSTVYLQMSSLKPEDTAIYFCARSKSTYISYNSNGYDYWGRGTQVTVSS
B11: L8Cj3 Mutant 13 (VHH)
VHH: EVQLVESGGGLVQAGGFLRLSCELRGRTFNQYAMAWFRQAPGKEREFVAGMGAVPHYGEFVKGRFTISRDNAKSTVYLQMSSLKPEDTAIYFCARSKSTYISYNSNGYDYWGRGTQVTVSS
B12: J3_CDR2_fill_1 (site directed mutagenesis) (VHH)
VHH: EVQLVESGGGLVQAGGFLRLSCELRGSIFNQYAMAWFRQAPGKEREFVAGMSGAVPHYGEFVKGRFTISRDNAKSTVYLQMSSLKPEDTAIYFCARSKSTYISYNSNGYDYWGRGTQVTVSS
B13: J3_CDR2_fill_2 (site directed mutagenesis) (VHH)
VHH: EVQLVESGGGLVQAGGFLRLSCELRGSIFNQYAMAWFRQAPGKEREFVAGMSWGAVPHYGEFVKGRFTISRDNAKSTVYLQMSSLKPEDTAIYFCARSKSTYISYNSNGYDYWGRGTQVTVSS
B14: 3E3mod-long-CDR2 (VHH)
VHH: QVQLQESGGGLVQAGGSLRLSCAASQFTLESYAIGWFRQAPGKDSEGVACISSSDGSTYYADSVKGRFTISRDNAKNTVYLQMNSLKPEDTAVYHCATSGAGSYCTLRAFGSWGQGTQVTVSS
B15: L8i5 (VHH)
VHH: EVQLVESGGGLVQAGGFLRLSCEPRGSIFNQYAMAWFRQAPGKEREFVAGMGAVAHYGEFVKGRFTISRDNAKNTAYLQMNSLKPEDTAIYFCARSKSTYISYNSNGYDYWGRGTQVTVSS
B16: L8Cj3 Mutant 1 (VHH)
VHH: EVQLVESGGGLVQAGGFLRLSCAASGSIFNQYAMAWFRQAPGKEREFVAGMGAVPHYGEFVKGRFTISRDNAKSTVYLQMSSLKPEDTAIYFCARSKSTYISYNSNGYDYWGRGTQVTVSS
B17: L81H9 (VHH)
VHH: EVQLVESGGGLVQAGGSLRLSCVCSGFSSDEYAIGWFRQAPGKEREGVSYISREDGSRHYADSVKGRFTISTDYARNTVYLQMDSLKPEDTGVYYCAAALLGDYVLWLPEYPYNYWGQGTQVTVSS
B18: L93E3 (VHH)
VHH: EVQLVESGGGLVQPGGSLRLSCAASQFTLESYAIGWFRQAPGKDSEGVACISSSTYYADSVKGRFTISRDNAKNTVYLQMESLKPEDTAVYHCATSGAGSYCTLRAFGSWGQGTQVTVSS
B19: L1719E1 (VHH)
VHH: EVQLVESGGGLVRHGDSLRLSCLVSGRTTSVYATGWFRQAPGKEREFVAAISWSGGYTNYADSVKGRFTISRDNAKNTVFLQMNSLKPEDTAVYYCAADRNPYRGSNNANAYDYWGQGTQVTVSS

Assays:
[1] = molecular target: gp140UG37 (subtype A), gp140 envelope glycoprotein from the HIV-1 group M A-clade isolate 92UG037 (HIV-1); test: binding of purified VHH to gp140 92UG (method not given)
[2] = molecular target: gp140CN54 (subtype B'/C), gp140 envelope glycoprotein from the HIV-1 group M CRF07-B/C-clade isolate 97CN54 (HIV-1); test: binding of purified VHH to gp140 CN54 (method not given)
[3] = molecular target: gp140UG37 (subtype A), gp140 envelope glycoprotein from the HIV-1 group M A-clade isolate 92UG037 (HIV-1); test: binding of VHH to gp140 92UG (method not given)
[4] = molecular target: gp140CN54 (subtype B'/C), gp140 envelope glycoprotein from the HIV-1 group M CRF07-B/C-clade isolate 97CN54 (HIV-1); test: binding of VHH to gp140 CN54 (method not given)
[5] = molecular target: gp120Yu-2 109-428 (HIV-1); test: competition ELISA on coated gp120Yu-2 109-428; periplasmic VHH first, then competitor b12 detected
[6] = molecular target: gp120Yu-2 109-428 (HIV-1); test: competition ELISA on coated gp120Yu-2 109-428; periplasmic VHH first, then competitor sCD4 detected
[7] = molecular target: gp120Yu-2 109-428 (HIV-1); test: competition ELISA on coated gp120Yu-2 109-428; periplasmic VHH first, then competitor 17b detected

| Binder | K50 (50% binding concentration; column head reads KD) [1] | K50 (50% binding concentration; column head reads KD) [2] | also measured |
| --- | --- | --- | --- |
| B1 | 0.04 µg/mL | 0.18 µg/mL |  |
| B2 | 0.025 µg/mL | 1.84 µg/mL |  |
| B3 | 0.028 µg/mL | 1.07 µg/mL |  |
| B4 | 0.024 µg/mL | 0.25 µg/mL |  |
| B5 | 0.95 µg/mL | > 100 µg/mL |  |
| B6 | 0.02 µg/mL | 0.36 µg/mL |  |
| B7 | 0.022 µg/mL | 0.14 µg/mL |  |
| B8 | 0.086 µg/mL | 12.1 µg/mL |  |
| B9 | 0.019 µg/mL | 9.26 µg/mL |  |
| B10 | 0.042 µg/mL | > 100 µg/mL |  |
| B11 | 0.027 µg/mL | > 100 µg/mL |  |
| B12 |  |  | K50 (50% binding concentration) [3]: > 10 µg/mL; K50 (50% binding concentration) [4]: > 100 µg/mL |
| B13 |  |  | K50 (50% binding concentration) [3]: > 10 µg/mL; K50 (50% binding concentration) [4]: > 100 µg/mL |
| B14 |  |  | K50 (50% binding concentration) [3]: > 10 µg/mL |
| B15 | 0.048 µg/mL | 8.54 µg/mL |  |
| B16 | 0.058 µg/mL | 67.8 µg/mL |  |
| B17 |  |  | signal as percent of the signal of the control [5]: < 30% |
| B18 |  |  | signal as percent of the signal of the control [6]: < 30% |
| B19 |  |  | signal as percent of the signal of the control [7]: < 30% |
